This is an account of results in article PMC8170004 (iScience, 2021).

Test [1] deals with T1, Human GDF11, biotinylated (human, UniProt O95390 299-407, biotin (Biotin Labeling Kit-NH2)).
T1 sequence: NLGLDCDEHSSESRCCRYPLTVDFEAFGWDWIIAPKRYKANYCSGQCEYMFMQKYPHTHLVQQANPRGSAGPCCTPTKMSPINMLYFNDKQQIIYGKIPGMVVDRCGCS
The test can be described thus: ELISA.

Another test concerns the target T2, Human GDF8, biotinylated (human, UniProt O14793 267-375, biotin (Biotin Labeling Kit-NH2)).
T2 sequence: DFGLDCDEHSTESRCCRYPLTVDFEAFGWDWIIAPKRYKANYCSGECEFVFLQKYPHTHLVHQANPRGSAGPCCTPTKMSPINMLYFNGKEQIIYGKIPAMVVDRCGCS
The test is described as follows: ELISA. For orientation: ELISA stands for enzyme-linked immunosorbent assay.

B1: Bivalent Human FSTL3-Fc (Fc fusion)
chain: MGSGNPAPGGVCWLQQGQEATCSLVLQTDVTRAECCASGNIDTAWSNLTHPGNKINLLGFLGLVHCLPCKDSCDGVECGPGKACRMLGGRPRCECAPDCSGLPARLQVCGSDGATYRDECELRAARCRGHPDLSVMYRGRCRKSCEHVVCPRPQSCVVDQTGSAHCVVCRAAPCPVPSSPGQELCGNNNVTYISSCHMRQATCFLGRSIGVRHAGSCAGTPEEPPGGESAEEEENFV
Turning to B1, the binding result in test [1] is on record as “binds”; with Human GDF8, biotinylated it was “binds”.
